Experiments:
[1] = target: HLA-A*68:02; test: IEDB peptide-MHC binding, purified MHC/competitive/radioactivity; filed as Kd, often an IC50 or EC50 that approximates it; ≥ and ≤ were set here for values at or beyond the usual limits of such assays
[2] = target: HLA-A*01:01; test: IEDB peptide-MHC binding, purified MHC/direct/fluorescence; filed as Kd, often an IC50 or EC50 that approximates it; ≥ and ≤ were set here for values at or beyond the usual limits of such assays
[3] = target: HLA-A*02:01; test: as above
[4] = target: HLA-A*03:01; test: as above
[5] = target: HLA-A*11:01; test: as above
[6] = target: HLA-A*26:01; test: as above
[7] = target: HLA-A*69:01; test: as above
[8] = target: HLA-B*07:02; test: as above
[9] = target: HLA-B*08:01; test: as above
[10] = target: HLA-B*15:01; test: as above
[11] = target: HLA-B*27:05; test: as above
[12] = target: HLA-B*40:01; test: as above
[13] = target: HLA-B*58:01; test: as above
[14] = target: HLA-A*31:01; test: as above
[15] = target: HLA-B*44:02; test: as above
[16] = target: HLA-A*02:01; test: IEDB peptide-MHC binding, purified MHC/competitive/fluorescence; ≥ and ≤ were set here for values at or beyond the usual limits of such assays
[17] = target: HLA-B*07:02; test: IEDB peptide-MHC binding, purified MHC/competitive/radioactivity; filed as Kd, often an IC50 or EC50 that approximates it; ≥ and ≤ were set here for values at or beyond the usual limits of such assays
[18] = target: HLA-B*35:01; test: as above
[19] = target: HLA-B*53:01; test: as above
[20] = target: HLA-A*30:02; test: as above; conditions: source organism: Dengue virus 1 Brazil/97-11/1997
[21] = target: HLA-A*24:02; test: IEDB peptide-MHC binding, purified MHC/competitive/fluorescence; ≥ and ≤ were set here for values at or beyond the usual limits of such assays
[22] = target: HLA-A*26:01; test: IEDB peptide-MHC binding, purified MHC/competitive/radioactivity; filed as Kd, often an IC50 or EC50 that approximates it; ≥ and ≤ were set here for values at or beyond the usual limits of such assays
[23] = target: HLA-B*08:01; test: as above; conditions: source organism: Dengue virus 2 Jamaica/1409/1983
[24] = target: HLA-A*02:06; test: as above
[25] = target: HLA-B*57:01; test: IEDB peptide-MHC binding, purified MHC/direct/fluorescence; filed as Kd, often an IC50 or EC50 that approximates it; ≥ and ≤ were set here for values at or beyond the usual limits of such assays; conditions: source organism: Giardia lamblia ATCC 50803
[26] = target: HLA-B*51:01; test: IEDB peptide-MHC binding, purified MHC/competitive/radioactivity; filed as Kd, often an IC50 or EC50 that approximates it; ≥ and ≤ were set here for values at or beyond the usual limits of such assays
[27] = target: HLA-A*02:02; test: as above; conditions: source organism: Lassa virus Josiah
[28] = target: HLA-A*02:03; test: as above; conditions: source organism: Lassa virus Josiah
[29] = source organism: Dengue virus 2 Jamaica/1409/1983
[30] = source organism: Escherichia coli
[31] = source organism: Escherichia coli O157:H7
[32] = source organism: Zaire ebolavirus
[33] = source organism: Dengue virus 4 Philippines/H241/1956
[34] = source organism: Dengue virus 1 Brazil/97-11/1997
[35] = source organism: Vaccinia virus Copenhagen
[36] = source organism: Sudan ebolavirus
[37] = source organism: Dengue virus 3 Martinique/1243/1999
[38] = source organism: Giardia lamblia ATCC 50803
[39] = source organism: Pseudomonas aeruginosa UCBPP-PA14
[40] = source organism: Vaccinia virus WR
[41] = source organism: Lassa virus Josiah
[42] = source organism: Vaccinia virus
[43] = source organism: Cryptosporidium parvum

MVSILASSLL
Kd [1, 29]: 0.0447 µM

TVANNPDDK
Kd [2, 30]: ≥ 20 µM
Kd [3, 30]: ≥ 20 µM
Kd [4, 30]: ≥ 20 µM
Kd [5, 30]: 1.58 µM
Kd [6, 30]: ≥ 20 µM
Kd [7, 30]: ≥ 20 µM
Kd [8, 30]: ≥ 20 µM
Kd [9, 30]: ≥ 20 µM
Kd [10, 30]: ≥ 20 µM
Kd [11, 30]: ≥ 20 µM
Kd [12, 30]: ≥ 20 µM
Kd [13, 30]: ≥ 20 µM

ELCAEAEEL
Kd ([1]; source organism: Homo sapiens): 1.06 µM

RFDEAIINY
Kd [2, 31]: ≥ 20 µM
Kd [3, 31]: ≥ 20 µM
Kd [4, 31]: ≥ 20 µM
Kd [5, 31]: ≥ 20 µM
Kd [6, 31]: ≥ 20 µM
Kd [14, 31]: ≥ 20 µM
Kd [7, 31]: ≥ 20 µM
Kd [8, 31]: ≥ 20 µM
Kd [9, 31]: ≥ 20 µM
Kd [10, 31]: ≥ 20 µM
Kd [11, 31]: ≥ 20 µM
Kd [12, 31]: ≥ 10 µM
Kd [15, 31]: ≥ 20 µM
Kd [13, 31]: ≥ 20 µM

STLAGVNVG
IC50 [16, 32]: ≥ 105 µM

LVMLLVHYA
Kd [1, 33]: 0.369 µM

TPQDNQLIYV
Kd [17, 33]: 7.76 µM

EPWLSSKPEF
Kd [18, 33]: 1.38 µM
Kd [19, 33]: 0.684 µM

YKVASEGFQY
Kd [20]: 0.135 µM
Kd [18, 34]: 3.92 µM

YRSGTETKI
IC50 [21, 35]: ≥ 315 µM

QSPPIREAV
IC50 [16, 36]: 38.3 µM

EPIEGKVVQY
Kd [22, 37]: 2.73 µM
Kd [18, 37]: 0.491 µM
Kd [19, 37]: 5.03 µM

TQETITETA
IC50 [16, 36]: ≥ 184 µM

HTIENTTANI
Kd [22, 34]: 2.07 µM
Kd [1, 34]: 0.00175 µM

RLRMDKLQL
Kd [17, 29]: 0.149 µM
Kd [23]: 0.175 µM

DLKDQIAQL
Kd ([24]; source organism: Homo sapiens): ≥ 78.7 µM
Kd ([1]; source organism: Homo sapiens): 0.826 µM

ETWMSSEGA
Kd [1, 29]: 0.00286 µM

PTAPSDGGM
Kd [25]: ≥ 20 µM
Kd [13, 38]: 9 µM

GLGGDASAY
Kd [2, 39]: ≥ 20 µM
Kd [3, 39]: ≥ 20 µM
Kd [4, 39]: ≥ 20 µM
Kd [5, 39]: ≥ 20 µM
Kd [6, 39]: ≥ 20 µM
Kd [14, 39]: ≥ 20 µM
Kd [7, 39]: ≥ 20 µM
Kd [8, 39]: ≥ 20 µM
Kd [9, 39]: ≥ 20 µM
Kd ([10]; source organism: Pseudomonas aeruginosa): 0.3 µM
Kd [11, 39]: ≥ 20 µM
Kd [12, 39]: ≥ 20 µM
Kd [13, 39]: ≥ 20 µM

IYTEGLMHN
IC50 [21, 36]: 4.41 µM

DGQQFYWPV
IC50 [16, 32]: 57.2 µM
IC50 [21, 32]: 62 µM

TVAWRTATLI
Kd [1, 37]: 0.0615 µM

YQLLEAVYG
IC50 [16, 35]: 31.1 µM

LFTEQAFYT
IC50 [16, 40]: 68.1 µM
IC50 [21, 40]: 55 µM

NADIGEWAF
IC50 [21, 36]: 55.5 µM

LITSTVTGI
IC50 [16, 36]: 1.64 µM
IC50 [21, 36]: 17.9 µM

ELLPAVSSG
IC50 [16, 32]: ≥ 194 µM

YVSAGESSI
IC50 [16, 35]: 32.7 µM

KPSGSASSM
Kd [17, 34]: 0.00488 µM

WTMKILIGVI
Kd [1, 29]: 0.184 µM

WVMKIGIGV
Kd [24, 37]: 0.00138 µM
Kd [1, 37]: 0.00527 µM

SPARLASAI
Kd [17, 33]: 0.00268 µM
Kd [26, 33]: 0.532 µM

VPTSRTTWSI
Kd [17, 29]: 0.0503 µM
Kd [26, 29]: 0.0525 µM

ELTCLNEASV
Kd ([1]; source organism: Homo sapiens): 0.0688 µM

YSAPSESEGV
Kd ([1]; source organism: Dengue virus 4 Dominica/814669/1981): 0.0122 µM

ALMDCIMFDA
Kd [27]: 0.00525 µM
Kd [28]: 0.00962 µM
Kd [24, 41]: 0.0336 µM
Kd [1, 41]: ≥ 5 µM

TTHFQRALI
Kd [1, 29]: 0.0013 µM

ANLEDLIEW
IC50 [21, 42]: ≥ 235 µM

KEGAFFLYD
IC50 [16, 32]: ≥ 3840 µM
IC50 [21, 32]: 46 µM

RLEEEINNQ
IC50 [16, 42]: ≥ 195 µM
IC50 [21, 42]: 32.6 µM

MAVLFVVTLI
Kd [1, 33]: 0.533 µM

AAIGLAWIP
IC50 [16, 32]: ≥ 280 µM
IC50 [21, 32]: ≥ 131 µM

IIQAFEAGV
IC50 [16, 32]: 2.47 µM

ELSFEALSL
IC50 [16, 36]: 23.9 µM
IC50 [21, 36]: 39.5 µM

SLEEEYPPW
IC50 [16, 32]: ≥ 214 µM
IC50 [21, 32]: ≥ 179 µM

GPMPVTHSSA
Kd [17, 29]: 0.00721 µM

TTELRTYTI
IC50 [16, 36]: ≥ 94.5 µM
IC50 [21, 36]: 0.925 µM

ESGAVKYLE
IC50 [21, 32]: ≥ 209 µM

DFIGKTIGF
Kd [2, 43]: ≥ 20 µM
Kd [3, 43]: ≥ 20 µM
Kd [4, 43]: ≥ 20 µM
Kd [5, 43]: ≥ 20 µM
Kd [6, 43]: 0.186 µM
Kd [14, 43]: ≥ 20 µM
Kd [7, 43]: ≥ 20 µM
Kd [8, 43]: ≥ 20 µM
Kd [9, 43]: ≥ 20 µM
Kd [10, 43]: ≥ 20 µM
Kd [11, 43]: ≥ 20 µM
Kd [12, 43]: ≥ 20 µM
Kd [15, 43]: ≥ 20 µM
Kd [13, 43]: ≥ 20 µM

TPHSGEEHAV
Kd [17, 29]: 0.162 µM

SSAAQRRGRI
Kd [1, 29]: 0.051 µM

TETKITFAL
IC50 [16, 35]: ≥ 83.3 µM
IC50 [21, 35]: 19 µM

DYIYLPLLK
Kd [2, 38]: ≥ 20 µM
Kd [3, 38]: ≥ 20 µM
Kd [4, 38]: 2.22 µM
Kd [6, 38]: ≥ 20 µM
Kd [7, 38]: ≥ 20 µM
Kd [8, 38]: ≥ 20 µM
Kd [9, 38]: ≥ 20 µM
Kd [10, 38]: ≥ 20 µM
Kd [11, 38]: ≥ 20 µM
Kd [12, 38]: ≥ 20 µM
Kd [15, 38]: ≥ 20 µM
Kd [13, 38]: ≥ 20 µM

SPIVDRKGKV
Kd [17, 29]: 0.545 µM

DTTIGEWAF
IC50 [21, 32]: 25.5 µM

IPATLFVWY
Kd [18, 34]: 0.00339 µM
Kd [19, 34]: 0.01 µM

ETQGVTAEI
Kd [22, 37]: 0.282 µM
Kd [1, 37]: 0.00296 µM

MPGTFQTTTG
Kd [18, 37]: 0.157 µM
Kd [19, 37]: 0.427 µM

SPPEVERAVL
Kd [17, 34]: 0.0197 µM

MPTVIEHLER
Kd [18, 37]: 0.871 µM
Kd [19, 37]: 7.05 µM

HALLATSIF
Kd [18, 34]: 0.0168 µM

Source: the Immune Epitope Database (IEDB)
